Paper PMC3435532

System: FLI1-CTD K4bR
Experiment: EMSA
Details: non-acetylated baseline; normalized to Coomassie; Non-radioactive EMSA: 1 ug protein, 500 fmol biotinylated dsDNA, binding buffer per Uren et al. 2004 (not given); 6% gel in 0.5x TBE; protein stock 20 mM …

Q: Which binding signal (fold vs non-acetylated wild type) does the source give for “ets-binding site oligonucleotide (wild type)” here?
A: Its binding signal (fold vs non-acetylated wild type) is 1.
